Source: patent US20090175866A1 (published 2009)
Positions count from the first letter of the chain named.

T1: FGFR1 (Table 1) (UniProt P11362 22-376, limits assumed)
T1 construct: the construct is not described
T1 sequence (looked up): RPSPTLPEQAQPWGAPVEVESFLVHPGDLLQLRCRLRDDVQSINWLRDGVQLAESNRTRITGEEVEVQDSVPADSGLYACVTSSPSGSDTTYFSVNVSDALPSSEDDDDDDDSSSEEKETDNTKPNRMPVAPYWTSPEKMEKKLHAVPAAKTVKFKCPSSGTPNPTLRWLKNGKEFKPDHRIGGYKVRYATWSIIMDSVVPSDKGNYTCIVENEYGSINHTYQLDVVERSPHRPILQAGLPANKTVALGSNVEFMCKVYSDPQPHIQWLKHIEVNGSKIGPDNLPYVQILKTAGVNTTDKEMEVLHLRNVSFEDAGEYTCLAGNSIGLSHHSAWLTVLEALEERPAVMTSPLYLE

B1: PRO-001 Fab (Fab, V domains shown)
VH: QVQLQQSGPGLVKPSQTLSLTCAISGDSVSSNSAAWNWIRQSPGRGLEWLGRTYYRSKWYNDYAVSVKSRITINPDTSKNQFSLQLNSVTPEDTAVYYCARSYYPDFDYWGQGTLVTVSS
VL: DIELTQPPSVSVAPGQTARISCSGDALGDKYASWYQQKPGQAPVLVIYDDSDRPSGIPERFSGSNSGNTATLTISGTQAEDEADYYCQSYDGPDLWVFGGGTKLTVLG
notes: Human Fab from the HuCAL-Fab-1 library; also called human anti-FGFR3 Fab PRO-001; anti-FGFR3 antibody
B2: PRO-002 (Fab, V domains shown)
VH: QVQLVQSGAEVKKPGASVKVSCKASGYTFTSYYMHWVRQAPGQGLEWMGWINPNSGGTNYAQKFQGRVTMTRDTSISTAYMELSSLRSEDTAVYYCARDFLGYEFDYWGQGTLVTVSS
VL: B1 VL with G92Y, P93S, D94A, L95D, W96Y
notes: HuCAL clone; the IC50 may be of the Fab-dHLX format
B3: PRO-012 (Fab, V domains shown)
VH: QVQLKESGPALVKPTQTLTLTCTFSGFSLSTSGVGVGWIRQPPGKALEWLALIDWDDDKYYSTSLKTRLTISKDTSKNQVVLTMTNMDPVDTATYYCARYHSWYEMGYYGSTVGYMFDYWGQGTLVTVSS
VL: DIELTQPPSVSVAPGQTARISCSGDALGDKYASWYQQKPGQAPVLVIYDDSDRPSGIPERFSGSNSGNTATLTISGTQAEDEADYYCQSYDFDFAVFGGGTKLTVLG
notes: as for B2
B4: PRO-021 (Fab, V domains shown)
VH: QVQLVQSGAEVKKPGSSVKVSCKASGGTFSSYAISWVRQAPGQGLEWMGGIIPIFGTANYAQKFQGRVTITADESTSTAYMELSSLRSEDTAVYYCARDNWFKPFSDVWGQGTLVTVSS
VL: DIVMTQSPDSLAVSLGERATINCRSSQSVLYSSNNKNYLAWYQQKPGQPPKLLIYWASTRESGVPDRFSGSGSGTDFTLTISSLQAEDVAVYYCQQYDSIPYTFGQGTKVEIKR
notes: as for B2
B5: PRO-026 (Fab, V domains shown)
VH: QVQLVQSGAEVKKPGASVKVSCKASGYTFTSYYMHWVRQAPGQGLEWMGWINPNSGGTNYAQKFQGRVTMTRDTSISTAYMELSSLRSEDTAVYYCARGYWYAYFTYINYGYFDNWGQGTLVTVSS
VL: DIALTQPASVSGSPGQSITISCTGTSSDVGGYNYVSWYQQHPGKAPKLMIYDVSNRPSGVSNRFSGSKSGNTASLTISGLQAEDEADYYCQSYDNNSDVVFGGGTKLTVLG
notes: HuCAL clone; the VL is headed 'MS-Pro-26-VL'; also called MS-Pro-26
B6: PRO-029 (Fab, V domains shown)
VH: QVQLVQSGAEVKKPGASVKVSCKASGYTFTSYYMHWVRQAPGQGLEWMGWINPNSGGTNYAQKFQGRVTMTRDTSISTAYMELSSLRSEDTAVYYCARTWQYSYFYYLDGGYYFDIWGQGTLVTVSS
VL: DIVLTQSPATLSLSPGERATLSCRASQSVSSSYLAWYQQKPGQAPRLLIYGASSRATGVPARFSGSGSGTDFTLTISSLEPEDFATYYCQQTNNAPVTFGQGTKVEIKR
notes: HuCAL clone
B7: PRO-054 (Fab, V domains shown)
VH: QVQLVQSGAEVKKPGASVKVSCKASGYTFTSYYMHWVRQAPGQGLEWMGWINPNSGGTNYAQKFQGRVTMTRDTSISTAYMELSSLRSEDTAVYYCARNMAYTNYQYVNMPHFDYWGQGTLVTVSS
VL: B3 VL with F92Y, D93F, F94K, A95L
notes: HuCAL clone
B8: PRO-024 (Fab, V domains shown)
VH: B4 VH with D99V, W101H, F102W, K103T, P104Y, F105T, S106F, V108Y
VL: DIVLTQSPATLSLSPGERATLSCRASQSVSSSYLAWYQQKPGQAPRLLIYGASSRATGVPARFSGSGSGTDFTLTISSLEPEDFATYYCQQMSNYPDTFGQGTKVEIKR
B9: PRO-055 (Fab, V domains shown)
VH: QVQLVQSGAEVKKPGASVKVSCKASGYTFTSYYMHWVRQAPGQGLEWMGWINPNSGGTNYAQKFQGRVTMTRDTSISTAYMELSSLRSEDTAVYYCARSMNSTMYWYLRRVLFDHWGQGTLVTVSS
VL: B5 VL with N95M, N96Y, S97N, D98Y, V99I

These binders were tested against T2, wild type FGFR3 expressed on cells (UniProt P22607 23-806, limits assumed) (assay: FACS).
T2 construct: whole, on cells; the myeloma cell lines and patient cells are human; also called WT FGFR3; B9-FGFR3^WT
T2 sequence (P22607 23-806 limits assumed): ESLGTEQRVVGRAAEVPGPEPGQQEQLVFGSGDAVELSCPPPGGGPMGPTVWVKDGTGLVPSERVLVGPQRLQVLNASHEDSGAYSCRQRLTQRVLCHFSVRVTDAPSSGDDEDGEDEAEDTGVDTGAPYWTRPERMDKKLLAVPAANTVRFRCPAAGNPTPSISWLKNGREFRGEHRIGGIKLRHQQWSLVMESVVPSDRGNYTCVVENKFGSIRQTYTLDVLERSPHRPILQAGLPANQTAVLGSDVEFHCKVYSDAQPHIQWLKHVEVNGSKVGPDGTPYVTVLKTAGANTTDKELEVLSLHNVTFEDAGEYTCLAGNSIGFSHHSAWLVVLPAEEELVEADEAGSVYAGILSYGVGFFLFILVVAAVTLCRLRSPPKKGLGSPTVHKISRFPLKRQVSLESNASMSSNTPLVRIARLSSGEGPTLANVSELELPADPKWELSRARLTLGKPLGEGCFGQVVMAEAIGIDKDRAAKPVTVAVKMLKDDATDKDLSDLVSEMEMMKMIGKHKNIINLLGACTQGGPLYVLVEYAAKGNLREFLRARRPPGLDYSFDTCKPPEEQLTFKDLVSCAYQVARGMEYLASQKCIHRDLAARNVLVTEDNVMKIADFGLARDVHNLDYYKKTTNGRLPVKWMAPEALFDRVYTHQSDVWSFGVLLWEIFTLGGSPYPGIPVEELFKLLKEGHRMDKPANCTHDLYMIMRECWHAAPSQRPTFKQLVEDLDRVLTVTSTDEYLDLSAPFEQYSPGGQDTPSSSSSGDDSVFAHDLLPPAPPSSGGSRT
With B1 the Kd was 0.7 nM. B2 showed a Kd of 43 nM. Binder B3 has a Kd of 6.5 nM. Work on B4 yielded a Kd of 1.1 nM. B5 was tested, and the Kd was 1.4 nM. B6 gave a Kd of under 1 nM.

Each binder was assayed against T1, FGFR1 (Table 1) (assay: BIAcore and/or FACS).
Work on B5 yielded a Kd of 32 nM. B6 was tested, and the Kd was 29 nM. B7 was tested, and the Kd was 2.5 nM.

The binders below were run against T2, wild type FGFR3 expressed on cells (assay: cell-based or functional assay).
For B1, the “IC50 FGFR3 (FGF9), FDCP-FGFR3 proliferation assay (dHLX format)” value (“IC50 FGFR3 (FGF9)” for short) was 19 nM. With B2 the “IC50 FGFR3 (FGF9)” value was 360 nM. In the case of B3, the “IC50 FGFR3 (FGF9)” value is reported as 58 nM. For B4, the “IC50 FGFR3 (FGF9)” value was 50 nM. B8 was tested, and the “IC50 FGFR3 (FGF9)” value was 70 nM. B5 was tested, and the “IC50 FGFR3 (FGF9)” value was 70 nM. For B6, the “IC50 FGFR3 (FGF9)” value was 20 nM. For B7, the “IC50 FGFR3 (FGF9)” value was 45 nM. In the case of B9, the “IC50 FGFR3 (FGF9)” value is reported as 34 nM.

Biological target: T2, wild type FGFR3 expressed on cells
Experiment: cell-based or functional assay
Remark: another data set of the same source
With B1 the “IC50 of FGF stimulated proliferation of FDCP-FGFR3 cells (XTT)” value was 0.5 µg/mL.

These binders were tested against FGFR3-Y373C expressed on B9 cells (UniProt P22607 23-806) (assay: cell-based or functional assay).
Chain of FGFR3-Y373C expressed on B9 cells (P22607 23-806 Y373C limits assumed): as the sequence (P22607 23-806 limits assumed) above, with Y351C counted along it
B1 was tested, and the “IC50 of FGF-stimulated growth of B9 cells expressing Y373C-FGFR3” value was about 3 µg/mL.

The binders below were run against FGFR3-F384L expressed on B9 cells (UniProt P22607 23-806) (assay: cell-based or functional assay).
Chain of FGFR3-F384L expressed on B9 cells (P22607 23-806 F384L limits assumed): as the sequence (P22607 23-806 limits assumed) above, with F362L counted along it
With B1 the “IC50 of FGF-stimulated growth of B9 cells expressing FGFR3 F384L” value was about 3 µg/mL.
